Test results published in paper PMC10320015, “Structural insights into CED-3 activation” (Life Science Alliance, 2023).

B1: WT CED-3 CARD (domain or fragment, C. elegans, UniProt P42573 1-91, looked up)
chain: MMRQDRRSLLERNIMMFSSHLKVDEILEVLIAKQVLNSDNGDMINSCGTVREKRREIVKAVQRRGDVAFDAFYDALRSTGHEGLAEVLEPL
notes: CED-3 CARD (caspase recruitment domain), C. elegans; source: E. coli BL21 (DE3), purified (Ni-NTA, Source-15Q anion exchange)
B2: CED-4 apoptosome (natural protein, C. elegans)
chain: MLCEIECRALSTAHTRLIHDFEPRDALTYLEGKNIFTEDHSELISKMSTRLERIANFLRIYRRQASELGPLIDFFNYNNQSHLADFLEDYIDFAINEPDLLRPVVIAPQFSRQMLDRKLLLGNVPKQMTCYIREYHVDRVIKKLDEMCDLDSFFLFLHGRAGSGKSVIASQALSKSDQLIGINYDSIVWLKDSGTAPKSTFDLFTDILLMLKSEDDLLNFPSVEHVTSVVLKRMICNALIDRPNTLFVFDDVVQEETIRWAQELRLRCLVTTRDVEISNAASQTCEFIEVTSLEIDECYDFLEAYGMPMPVGEKEEDVLNKTIELSSGNPATLMMFFKSCEPKTFEKMAQLNNKLESRGLVGVECITPYSYKSLAMALQRCVEVLSDEDRSALAFAVVMPPGVDIPVKLWSCVIPVDICSNEEEQLDDEVADRLKRLSKRGALLSGKRMPVLTFKIDHIIHMFLKHVVDAQTIANGISILEQRLLEIGNNNVSVPERHIPSHFQKFRRSSASEMYPKTTEETVIRPEDFPKFMQLHQKFYDSLKNFACC
notes: CED-4, C. elegans; also called CED-4b; CED-4c; source: recombinantly expressed, obtained as previously reported (Qi et al, 2010), purified (SEC)
B3: CED-3 catalytic mutant (198–503, C358A) (domain or fragment, C. elegans, UniProt P42573 198-503, looked up)
chain: NRSFSKASGPTQYIFHEEDMNFVDAPTISRVFDEKTMYRNFSSPRGMCLIINNEHFEQMPTRNGTKADKDNLTNLFRCMGYTVICKDNLTGRGMLLTIRDFAKHESHGDSAILVILSHGEENVIIGVDDIPISTHEIYDLLNAANAPRLANKPKIVFVQAARGERRDNGFPVLDSVDGVPAFLRRGWDNRDGPLFNFLGCVRPQVQQVWRKKPSQADILIAYATTAQYVSWRNSARGSWFIQAVCEVFSTHAKDMDVVELLTEVNKKVACGFQTSQGSNILKQMPEMTSRLLKKFYFWPEARNSAV
notes: CED-3 catalytic domain, C. elegans, residues 198-503; also called CED-3 catalytic domain; catalytic mutant (C358A); source: expressed and purified as described previously (Huang et al, 2013)

Legend:
[1] = target: B2; assay: cryo-EM structure; CED-4/CED-3_CARD complex, assembled at 4°C for 1 h, purified by SEC in 20 mM HEPES pH 7.5, 10 mM KCl, 1.5 mM MgCl2, 1 mM EDTA, 1 mM DTT; about 2 uM; conditions: both partners purified
[2] = target: the molecule itself; assay: as above
[3] = target: the molecule itself; assay: cryo-EM structure; CED-4 apoptosome alone (Apo dataset), low-salt sample, about 2 uM; 3D classification and refinement
[4] = target: the molecule itself; assay: cryo-EM structure; holoenzyme: ternary complex of CED-4, CED-3 CARD and CED-3 catalytic domain, assembled at 4°C for 1 h, purified by SEC in 20 mM HEPES pH 7.5, 10 mM KCl, 1.5 mM MgCl2, 1 mM EDTA, 1 mM DTT; about 2 uM
[5] = target: B2; assay: cryo-EM structure; CED-4/CED-3 catalytic complex: CED-4 incubated with CED-3 (198-503, C358A), assembled at 4°C for 1 h, purified by SEC in 20 mM HEPES pH 7.5, 10 mM KCl, 1.5 mM MgCl2, 1 mM EDTA, 1 mM DTT; about 2 uM; conditions: both partners purified

Binder: B1
stoichiometry N [1]: 4 CED-3 CARDs per octameric CED-4 apoptosome

Binder: B2
stoichiometry N [2]: 8
stoichiometry N [3]: 7
stoichiometry N [4]: 6

Binder: B3
binding result [5]: binds
